Biological target: T1, MTBP (Mdm2 Binding Protein), Xenopus (Xenopus laevis (endogenous in egg …, UniProt Q6NRW0 1-860))
T1 construct: MTBP of Xenopus laevis, endogenous in egg extract; 96 kDa as printed; Printed N-terminal 125 residues (antigen MTBP-2): [residues removed]
T1 sequence (looked up): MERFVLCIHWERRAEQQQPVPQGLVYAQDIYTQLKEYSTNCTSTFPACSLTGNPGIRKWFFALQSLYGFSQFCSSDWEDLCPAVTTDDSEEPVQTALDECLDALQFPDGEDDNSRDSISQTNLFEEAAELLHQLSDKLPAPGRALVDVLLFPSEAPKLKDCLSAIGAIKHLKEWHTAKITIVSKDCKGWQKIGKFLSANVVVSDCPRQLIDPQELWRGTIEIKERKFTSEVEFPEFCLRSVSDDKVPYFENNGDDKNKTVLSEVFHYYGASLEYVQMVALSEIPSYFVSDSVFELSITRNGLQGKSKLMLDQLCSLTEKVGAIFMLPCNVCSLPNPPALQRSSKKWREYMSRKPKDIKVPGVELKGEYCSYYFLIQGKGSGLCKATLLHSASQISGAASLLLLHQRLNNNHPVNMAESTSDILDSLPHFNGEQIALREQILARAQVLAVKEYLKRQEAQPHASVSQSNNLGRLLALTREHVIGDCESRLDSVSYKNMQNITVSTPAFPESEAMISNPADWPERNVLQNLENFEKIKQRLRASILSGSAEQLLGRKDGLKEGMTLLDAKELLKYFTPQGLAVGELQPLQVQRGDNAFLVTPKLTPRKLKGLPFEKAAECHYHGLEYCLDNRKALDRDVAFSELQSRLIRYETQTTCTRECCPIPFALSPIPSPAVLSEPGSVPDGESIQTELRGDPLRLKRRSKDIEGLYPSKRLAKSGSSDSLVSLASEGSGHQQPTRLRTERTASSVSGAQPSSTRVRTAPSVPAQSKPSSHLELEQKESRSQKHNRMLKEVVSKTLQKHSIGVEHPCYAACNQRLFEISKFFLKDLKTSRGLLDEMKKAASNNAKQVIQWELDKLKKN
Assay: SEC + other: sucrose gradient centrifugation; 3% PEG-precipitated proteins of Xenopus egg extract in LFB1/50; Agilent BIO SEC-5 column at 4°C and 5-40% sucrose gradient; fractions immunoblotted for MTBP and Treslin; native mass by the Siegel and Monty equation
Conditions: partners not purified

B1: Treslin/Ticrr, Xenopus (natural protein, UniProt D3IUT5 1-1985, looked up)
chain: MAPSHNVVLLVDTAESSDKSRLRRVSLRLLNFLACRAGLGQVRWSYRFLNSSGGRCRPPRRSDLRELGPRGWEEFEDELEACWERARNCRPSSTQSSRAQLLQTALMETLADFQWDRPDITSPTKPTLLRSRRGRIVAADEPLKDDSPDNFINPHSRNSIFLLSSCPHSGTELGQFAATSGDFSTQKVMDKLLPKSLQKIVSSKRVRVYWLDTSDWTQFGSSSDHSGYWTMVELMHQVEGRILPSESILGSSCQKAKTLPSFSVPPINIPFESVLNYLIFSEPDYQLWFPRRDGILFLTGKDGTKQLDCAVSLEPVSMIQKLSTSLMTIELKGTMQNCNLPLAGLRVETWLLHNSDCVQLQKLTKELMLKELHMIATVTLEDDVLPRTGILSPLSETAAVLNVICSERTLGLDNLHVQGSVHETDKETFSDLPDIVMSVLNHVYSSEDNTLAPDFPVPEWIKQELSQSSRWTSSVTARWYPLSGVSGASCNLMESFRLINAASSNCDEHLKFDQELTNYLSEFYQKKSVDDAGLGVHRENQKKSGLPRTPVRQKMKTLPRALQMLNAARLNVKAQKADSTLPVPNEKNSQMKRRSSGKQDNKPKQLKPTEFQSEDGLISYIKENYEEAVSLVDHSTMTWARDTLTTIKSYLKSIGSEQIETEAIDKVKLLFKTSKVIRQNYRNNQDKEVKLKECQLQVFLRLEMFVQCPVIQMDSDELELIIEEITDILRIVSLTEDPLFLTKFLEVDVLTQYIASVPKILADIYFSLGTQIPEVLVLVLPSDGDDSIMHEEKSVKSQPSTSRVPSVAPIGAETDQLEDLRTRSAKKRRSTALARHRSVAESSQSFRQIEVPKRQPNKENVQSNAVVVLEKLKLPLPAQPQKDAEAKVRRNLFIQETRSPSKRCSKMPRSQSVSAVESLKRKRSKSHDGSKDHHKLLTKKVSETPVHKQTANRLLLRQIKGRPSESNSNISIVEESPEKEIRDIDLRRSPRIKQLSLTRRNSSSFYASQPKSRNLERVNSATQLQQSRERPGSCLISEVKTPKRLLFGEVLGMISPPTTKRSRRILDMVNPVYKTPGKTPRKTPSKNIPNFEDQSGNMLVKSPCTPYTPRTPSRTPKRLKTPSKGSTERKKAAKNLGKLFSPSKPEEKSPLKLWGRRSERLAQMTPGKDGSPYKQSVCQTLMEVKTPQKLQRLESKDFRTPSRTPTRSNNTTPAKQSMQISNTPRKSDLKHPQEHESRGPSGYILWTPQKRILASVPHTPILQTPQKPISASVPRTPVCRTPQKAILSSVPSTPVCQTPNKAILTSVSRTPVYQTPQKAILASVMSTPVYQTPQKPVLASVPTTPILKTPQRSALASVSHTPSPKKYIMKELTVAITRMRECTPEKVLGSNLSSSATPSSALKSFCSEKTTSVCQTPKKSSIALLKPCDSLEFSGAPERLMDSLCSNKDSTKAETACTVPSQISTQMQNVINAGECTDSLSQTSVSSPSIPFTDKSLSPDLKDALSDVTSSKAEGVTIVSEKLDSSSMDSQEATDSFINSSQTEESIDISEARVVSTEASELKMKVLITRKPSGSGVSYLPTTPKCLGNVCSTSTYGLRCTPDRRQREAAARLGTPEIPAKFSTPKSHCKMIPQSIYEVELEMQESGLPKLRFKRTDSNSTIDMDVNKTPKISRKRKGDESPFNEKWCSKHAVRTEPACVSPSCVRTSHYTPGKSGIQTFICQSYTPNRCLSAAASPSQSDAGVPWTPSPKEKLSTDVINSWPRKKKASALCTNLLKCDKIPEYAEEDGGDFELEGVSKLLEKSPVIEQQSKVDGGTFGLRSRKRVFSLVSPTKETENPVKRVCTFNRHEDSSTATHRHQTKEEMEIFSSDQSRSSYLSSSQQSICDDVFNMSDFTPPSKVPKNPLSACGLLTLTQSPLLYKGKTPSSKRKEKIQDVFSDGDSDHGTPTLKRPTNPAAVSDDSPFRKVNPLRSISKTYSRKKLIT
notes: Treslin (Ticrr) of Xenopus laevis, endogenous in egg extract; 220 kDa as printed; no sites are mapped
In the case of B1, the “stoichiometry N” value is reported as 2 molecules of Treslin with 2 molecules of MTBP.

— publication PMC8548084, “The role of DDK and Treslin–MTBP in coordinating replication licensing and pre-initiation complex formation” (Open Biology, 2021)
